Reference: patent US20100323443A1 (BIOLAMINA, published 2010)

Legend:
[1] = biological target: β1-integrin on mouse embryonic stem cells (mouse) (UniProt P09055); assay: cell-based or functional assay
[2] = biological target: T1, human recombinant laminin-511 (human, UniProt O15230 36-3695; P07942 22-1786; P11047 34-1609); assay: summary of the adhesion-blocking assays
T1 construct: Coated on plates (30 ug/ml) in the adhesion assays; also called laminin-10
Experimental: Attachment assay was performed as described ([Extracellular Matrix Protocols, 2000). Briefly, MaxiSorp 96-well plates (Nunc) coated by extracellular matrix proteins as described above and blocked by 1% heat-denatured BSA solution. Undifferentiated embryonic cells were plated at cell density of 800 cell/mm² upon extracellular matrix-coated plates and were left to adhere for 1 hour at 37° C. Non-adherent cells were washed away, and adherent cells were fixed for 20 min by 5% glutaraldehyde, stained by 0.1% Crystal Violet.
Adhesion-blocking assays were performed as described previously. […] Non-attached cells were removed and the remaining cells were fixed, stained and quantified as described above (Cell adhesion assay). Error bars show standard error (SEM).

Molecule	Blocking those integrins inhibits ES cell adhesion to LN-511 [1] [%]	binding result [2]
human recombinant laminin-511, O15230 36-3695; P07942 22-1786; P11047 34-1609	100	
α6β1 integrin on mouse embryonic stem cells (receptor, whole, on cells) chain 1: FNLDTREDNVIRKSGDPGSLFGFSLAMHWQLQPEDKRLLLVGAPRAEALPLQRANRTGGLYSCDITSRGPCTRIEFDNDADPMSESKEDQWMGVTVQSQGPGGKVVTCAHRYEKRQHVNTKQESRDIFGRCYVLSQNLRIEDDMDGGDWSFCDGRLRGHEKFGSCQQGVAATFTKDFHYIVFGAPGTYNWKGIVRVEQKNNTFFDMNIFEDGPYEVGGETDHDESLVPVPANSYLGFSLDSGKGIVSKDDITFVSGAPRANHSGAVVLLKRDMKSAHLLPEYIFDGEGLASSFGYDVAVVDLNADGWQDIVIGAPQYFDRDGEVGGAVYVYINQQGKWSNVKPIRLNGTKDSMFGISVKNIGDINQDGYPDIAVGAPYDDLGKVFIYHGSPTGIITKPTQVLEGTSPYFGYSIAGNMDLDRNSYPDLAVGSLSDSVTIFRSRPVINILKTITVTPNRIDLRQKSMCGSPSGICLKVKACFEYTAKPSGYNPPISILGILEAEKERRKSGLSSRVQFRNQGSEPKYTQELTLNRQKQRACMEETLWLQENIRDKLRPIPITASVEIQEPSSRRRVNSLPEVLPILNSNEAKTVQTDVHFLKEGCGDDNVCNSNLKLEYKFGTREGNQDKFSYLPIQKGIPELVLKDQKDIALEITVTNSPSDPRNPRKDGDDAHEAKLIATFPDTLTYSAYRELRAFPEKQLSCVANQNGSQADCELGNPFKRNSSVTFYLILSTTEVTFDTTDLDINLKLETTSNQDNLAPITAKAKVVIELLLSVSGVAKPSQVYFGGTVVGEQAMKSEDEVGSLIEYEFRVINLGKPLKNLGTATLNIQWPKEISNGKWLLYLMKVESKGLEQIVCEPHNEINYLKLKESHNSRKKRELPEKQIDDSRKFSLFPERKYQTLNCSVNVRCVNIRCPLRGLDSKASLVLRSRLWNSTFLEEYSKLNYLDILLRASIDVTAAAQNIKLPHAGTQVRVTVFPSKTVAQYSGVAWWIILLAVLAGILMLALLVFLLWKCGFFKRSRYDDSIPRYHAVRIRKEEREIKDEKHMDNLEKKQWITKWNENESYS chain 2: QTDKNRCLKANAKSCGECIQAGPNCGWCTNTTFLQEGMPTSARCDDLEALKKKGCQPSDIENPRGSQTIKKNKNVTNRSKGMAEKLRPEDITQIQPQQLLLKLRSGEPQKFTLKFKRAEDYPIDLYYLMDLSYSMKDDLENVKSLGTDLMNEMRRITSDFRIGFGSFVEKTVMPYISTTPAKLRNPCTSEQNCTSPFSYKNVLSLTDRGEFFNELVGQQRISGNLDSPEGGFDAIMQVAVCGSLIGWRNVTRLLVFSTDAGFHFAGDGKLGGIVLPNDGQCHLENNVYTMSHYYDYPSIAHLVQKLSENNIQTIFAVTEEFQPVYKELKNLIPKSAVGTLSGNSSNVIQLIIDAYNSLSSEVILENSKLPDGVTINYKSYCKNGVNGTGENGRKCSNISIGDEVQFEISITANKCPNKESETIKIKPLGFTEEVEVVLQFICKCNCQSHGIPASPKCHEGNGTFECGACRCNEGRVGRHCECSTDEVNSEDMDAYCRKENSSEICSNNGECVCGQCVCRKRDNTNEIYSGKFCECDNFNCDRSNGLICGGNGVCRCRVCECYPNYTGSACDCSLDTGPCLASNGQICNGRGICECGACKCTDPKFQGPTCETCQTCLGVCAEHKECVQCRAFNKGEKKDTCAQECSHFNLTKVESREKLPQPVQVDPVTHCKEKDIDDCWFYFTYSVNGNNEAIVHVVETPDCPTGPDIIPIVAGVVAGIVLIGLALLLIWKLLMIIHDRREFAKFEKEKMNAKWDTGENPIYKSAVTTVVNPKYEGK		binds
αVβ1 integrin on mouse embryonic stem cells (receptor, whole, on cells) chain 1: FNLDVESPAEYAGPEGSYFGFAVDFFEPSTSSRMFLLVGAPKANTTQPGIVEGGQVLKCECSSSRRCQPIEFDSTGNRDYAKDDPLEFKSHQWFGASVRSKQDKILACAPLYHWRTEMKQEREPVGTCFLQDGTKTVEYAPCRSKNIDADGQGFCQGGFSIDFTKADRVLLGGPGSFYWQGQLISDQVAEIISKYDPNVYSIKYNNQLATRTAQAIFDDSYLGYSVAVGDFNGDGIEDFVSGVPRAARTLGMVYIYDGKNMSSLHNFTGEQMAAYFGFSVAATDINGDDYADVFIGAPLFMDRGSDGKLQEVGQVSVSLQRAVGDFQTTKLNGFEVFARFGSAIAPLGDLDQDGFNDIAIAAPYGGEDKKGLVYIFNGRSTGLNSVPSQILEGQWAAQSMPPSFGYSMKGATDVDRNGYPDLVVGAFGVDRAVLYRARPVVTVNAGLEVYPSILNQDNKICPLPGTALKVSCFNVRFCLKADGKGTLPRKLHFQVELLLDKLKQKGAIRRALFLHNRSPVHSKTMTVFRGGQMQCEELVAYLRDESEFRDKLTPITIFMEYRLDQRTAADATGLQPILNQFTPANVSRQAHILLDCGEDNVCKPKLEVSVNSDQKKIYIGDDNPLTLTVKAQNQGEGAYEAELIVSIPPQADFIGVVRNNEALARLSCAFKTENQTRQVVCDLGNPMKAGTQLLAGLRFSVHQQSEMDTSVKFDLKIQSSNSFDNVSPVVSYKVDLAVLAAVEIRGVSSPDHIFLPIPNWEYKENPETEEDVGPIVQHIYELRNNGPSSFSKAILNLQWPYKYNNNTLLYILHYDIDGPMNCTADTEINPLRIKTPEKNDTAAAGQGERNHLITKRDLTLREGDVHTLGCGIAKCLQITCQVGRLDRGKSAILYVKSLLWTETFMNKENQNHSYSLKSSASFNIIEFPYKNLPIEDLFNSTLVTTNITWGIQPAPMPVPVWVIILAVLAGLLLLAVLVFVMYRMGFFKRVRPPQEEQEREQLQPHENGEGNSET chain 2: QTDKNRCLKANAKSCGECIQAGPNCGWCTNTTFLQEGMPTSARCDDLEALKKKGCQPSDIENPRGSQTIKKNKNVTNRSKGMAEKLRPEDITQIQPQQLLLKLRSGEPQKFTLKFKRAEDYPIDLYYLMDLSYSMKDDLENVKSLGTDLMNEMRRITSDFRIGFGSFVEKTVMPYISTTPAKLRNPCTSEQNCTSPFSYKNVLSLTDRGEFFNELVGQQRISGNLDSPEGGFDAIMQVAVCGSLIGWRNVTRLLVFSTDAGFHFAGDGKLGGIVLPNDGQCHLENNVYTMSHYYDYPSIAHLVQKLSENNIQTIFAVTEEFQPVYKELKNLIPKSAVGTLSGNSSNVIQLIIDAYNSLSSEVILENSKLPDGVTINYKSYCKNGVNGTGENGRKCSNISIGDEVQFEISITANKCPNKESETIKIKPLGFTEEVEVVLQFICKCNCQSHGIPASPKCHEGNGTFECGACRCNEGRVGRHCECSTDEVNSEDMDAYCRKENSSEICSNNGECVCGQCVCRKRDNTNEIYSGKFCECDNFNCDRSNGLICGGNGVCRCRVCECYPNYTGSACDCSLDTGPCLASNGQICNGRGICECGACKCTDPKFQGPTCETCQTCLGVCAEHKECVQCRAFNKGEKKDTCAQECSHFNLTKVESREKLPQPVQVDPVTHCKEKDIDDCWFYFTYSVNGNNEAIVHVVETPDCPTGPDIIPIVAGVVAGIVLIGLALLLIWKLLMIIHDRREFAKFEKEKMNAKWDTGENPIYKSAVTTVVNPKYEGK		binds
